Experiments:
HuCD3E [1] = biological target: T1, HuCD3E (Homo sapiens, UniProt P07766 23-126, limits assumed); assay: SPR, Biacore 8K; CD3 Affinity column: Low
T1 construct: Recombinant analyte in SPR and antigen in ELISA; also called human CD3; human CD3 epsilon

HuCD3E [2] = biological target: T1, HuCD3E; assay: SPR, Biacore 8K; CD3 Affinity column: Hi
HuCD3E [3] = biological target: T1, HuCD3E; assay: SPR, Biacore 8K; CD3 Affinity column: Med; lower end of the range
HuCD3E [4] = biological target: T1, HuCD3E; assay: SPR, Biacore 8K; CD3 Affinity column: Med; upper end of the range
HuCD3E [5] = biological target: T1, HuCD3E; assay: SPR, Biacore 8K; CD3 Affinity column: Low; remark: listed apart in the source
Experimental: (§1) Initially, the affinity measurement of the anti-CD3 clones were determined using a Surface Plasmon Resonance (SPR) biosensor, Biacore 8K (GE Healthcare). The equilibrium dissociation constant (KD) was calculated from the ratio of kd over ka. To determine the contribution of a specific residue to antibody affinity and expression, paratope mapping was performed by screening of NNK libraries. In brief, the VH and VL of the parental antibody were searched by using NCBI Ig-Blast (www.ncbi.nlm.nih.gov/projects/igblast/) and CDRs were defined by the KABAT delineation system. All residues within CDRs were defined and mutated by NNK method. Each individual NNK library was generated per residue based on the FASEBA platform with a theoretical diversity at 20. The DNA encoding both heavy chain and light chain were inserted into a mammalian expression vector, transfected into CHO-S cells, and stable clones of highest expression were selected. Supernatants were collected from shaker flasks and purified on protein A affinity chromatography.
(§2) Affinity ranking. Binding between the parental and affinity-tuned bispecific antibodies and human and cyno target proteins (HER2 and CD3) was validated by ELISA, and a Biacore 8K was used to study the kinetics of the interaction between the antigen and the bispecific antibodies.

HuCD3E [6] = biological target: T1, HuCD3E; assay: SPR, Biacore 8K; antibody captured, CD3E as analyte
Experimental: as §1, §2

CynoCD3E [7] = biological target: T2, CynoCD3E (cyno, UniProt Q95LI5 22-117, limits assumed); assay: as above
T2 construct: Recombinant analyte in SPR and antigen in ELISA; The construct is not described; also called cynomolgus CD3 epsilon
T2 sequence (looked up): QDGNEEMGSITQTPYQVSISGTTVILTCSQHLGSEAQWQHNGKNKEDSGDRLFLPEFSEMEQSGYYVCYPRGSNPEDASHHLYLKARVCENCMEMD
Experimental: as §1, §2

HuCD3E [8] = biological target: T1, HuCD3E; assay: SPR, Biacore 8K; antibody captured, CD3E as analyte; sample after 24 h at 42° C.
Experimental: as §1
(§3) Thermal stability. […] After incubation, the supernatant was centrifuged at 4500 rpm, and undissolved substances was discarded. Heat-treated, purified full-length bispecific antibodies were re-evaluated for their concentrations, and affinity ranking of samples with thermal treatment to human and cyno CD3 was conducted.
as §2

CynoCD3E [9] = biological target: T2, CynoCD3E; assay: as above
Experimental: as §1, §3, §2

T1 sequence (P07766 23-126 limits assumed): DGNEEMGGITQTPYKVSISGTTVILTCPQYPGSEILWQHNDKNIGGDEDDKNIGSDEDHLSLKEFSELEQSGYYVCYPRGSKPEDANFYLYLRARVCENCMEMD

B1: 32G4-V8-v5.5 (antibody, V domains shown)
VH: EVQLVESGGGLVQPGGSLKLSCAASGFTFNTYAMNWVRQAPGKGLEWVARIRSKYNNYATYYADSVKDRFTISRDDSKNTAYLQMNSLKTEDTAVYYCVRHGNFGNSYVSWFMYWGQGTLVTVSS
VL: QTVVTQEPSLTVSPGGTVTLTCRSSTGAVTTSNYANWVQQKPGQAFRGLIGGTNKRAPGVPARFSGSLLGGKAALTLSGVQPEDEAIYFCALWYSNLWVFGGGTKLTVL
- Kd (HuCD3E [1]): > 100 nM

B2: 32G4-V8-v5.6 (antibody, V domains shown)
VH: EVQLVESGGGLVQPGGSLKLSCAASGFTFNTYAMNWVRQAPGKGLEWVARIRSKYNNYATYYADSVKDRFTISRDDSKNTAYLQMNSLKTEDTAVYYCVRHGNFGNSYVSWFAYWGQGTLVTVSS
VL: QTVVTQEPSLTVSPGGTVTLTCRSSTGAVTTSNYANWVQQKPGQAFRGLIGGTNKRAPGVPARFSGSLLGGKAALTLSGVQPEDEAIYFCMLWYSNLWVFGGGTKLTVL
- Kd (HuCD3E [1]): > 100 nM

B3: ABP100s.10.0.1 (antibody, V domains shown)
VH: EVQLVESGGGLVQPGGSLKLSCAASGFTFNTYAMNWVRQAPGKCLEWVARIRSKYNNYATYYADSVKDRFTISRDDSKNTAYLQMNSLKTEDTAVYYCVRHGNFGNSYVSWFGYWGQGTLVTVSS
VL: QTVVTQEPSLTVSPGGTVTLTCRSSTGAVTTSNYANWVQQKPGQAFRGLIGGTNKRAPGVPARFSGSLLGGKAALTLSGVQPEDEAIYFCALWYSNLWVFGCGTKLTVL
- Kd (HuCD3E [2]): < 10 nM

B4: ABP100s.10.0.2 (antibody, V domains shown)
VH: EVQLVESGGGLVQPGGSLKLSCAASGFTFNTYAMNWVRQAPGKCLEWVARIRSKYNNYATYKADSVKDRFTISRDDSKNTAYLQMNSLKTEDTAVYYCVRHGNFGNSYVSWFAYWGQGTLVTVSS
VL: QTVVTQEPSLTVSPGGTVTLTCRSSTGAVTTSNYANWVQQKPGQAFRGLIGGTNKRAPGVPARFSGSLLGGKAALTLSGVQPEDEAIYFCALWYSNLWVFGCGTKLTVL
- Kd (HuCD3E [3]): ≥ 10 nM
- Kd (HuCD3E [4]): ≤ 100 nM

B5: ABP100s.10.0.3 (antibody, V domains shown)
VH: EVQLVESGGGLVQPGGSLKLSCAASGFTFNTYAMNWVRQAPGKCLEWVARIRSKYNNYATYYADKVKDRFTISRDDSKNTAYLQMNSLKTEDTAVYYCVRHGNFGNSYVSWFAYWGQGTLVTVSS
VL: QTVVTQEPSLTVSPGGTVTLTCRSSTGAVTTSNYANWVQQKPGQAFRGLIGGTNKRAPGVPARFSGSLLGGKAALTLSGVQPEDEAIYFCALWYSNLWVFGCGTKLTVL
- Kd (HuCD3E [3]): ≥ 10 nM
- Kd (HuCD3E [4]): ≤ 100 nM

B6: ABP100s.10.0.4 (antibody, V domains shown)
VH: EVQLVESGGGLVQPGGSLKLSCAASGFTFNTYAMNWVRQAPGKCLEWVARIRSKYNNYATYYWDSVKDRFTISRDDSKNTAYLQMNSLKTEDTAVYYCVRHGNFGNSYVSWFAYWGQGTLVTVSS
VL: QTVVTQEPSLTVSPGGTVTLTCRSSTGAVTTSNYANWVQQKPGQAFRGLIGGTNKRAPGVPARFSGSLLGGKAALTLSGVQPEDEAIYFCALWYSNLWVFGCGTKLTVL
- Kd (HuCD3E [3]): ≥ 10 nM
- Kd (HuCD3E [4]): ≤ 100 nM

B7: ABP100s.10.4 (antibody, V domains shown)
VH: EVQLVESGGGLVQPGGSLKLSCAASGFTFNTYAMNWVRQAPGKCLEWVARIRSKYNNYATYYADSVKDRFTISRDDSKNTAYLQMNSLKTEDTAVYYCVRHGNFGNSYVSWFAYWGQGTLVTVSS
VL: QTVVTQEPSLTVSPGGTVTLTCRSSTGAVTTSNYANWVQQKPGQAFRGLIGGTNKRAPGVPARFSGSLLGGKAALTLSGVQPEDEAIYFCALWYSNLWVFGCGTKLTVL
- Kd (HuCD3E [2]): < 10 nM

B8: ABP100s.10.5 (antibody, V domains shown)
VH: EVQLVESGGGLVQPGGSLKLSCAASGFTFNTYAMNWVRQAPGKCLEWVARIRSKYNNYATYYADSVKDRFTISRDDSKNTAYLQMNSLKTEDTAVYYCVRHGNFGNSYVSWFAYWGQGTLVTVSS
VL: QTVVTQEPSLTVSPGGTVTLTCRSSTGAVTTSNYANWVQQKPGQAFRGLIGGTNKRAPGVPARFSGSLLGGKAALTLSGVQPEDEAIYFCALWYSNLWVFGCGTKLTVL
- Kd (HuCD3E [2]): < 10 nM

B9: ABP100s.10.5.5 (antibody, V domains shown)
VH: EVQLVESGGGLVQPGGSLKLSCAASGFTFNTYAMNWVRQAPGKCLEWVARIRSKYNNYATYYADSVKDRFTISRDDSKNTAYLQMNSLKTEDTAVYYCVRHGNFGNSYVSWFMYWGQGTLVTVSS
VL: QTVVTQEPSLTVSPGGTVTLTCRSSTGAVTTSNYANWVQQKPGQAFRGLIGGTNKRAPGVPARFSGSLLGGKAALTLSGVQPEDEAIYFCALWYSNLWVFGCGTKLTVL
- Kd (HuCD3E [5]): > 100 nM

B10: ABP100s.10.5.6 (antibody, V domains shown)
VH: EVQLVESGGGLVQPGGSLKLSCAASGFTFNTYAMNWVRQAPGKCLEWVARIRSKYNNYATYYADSVKDRFTISRDDSKNTAYLQMNSLKTEDTAVYYCVRHGNFGNSYVSWFAYWGQGTLVTVSS
VL: QTVVTQEPSLTVSPGGTVTLTCRSSTGAVTTSNYANWVQQKPGQAFRGLIGGTNKRAPGVPARFSGSLLGGKAALTLSGVQPEDEAIYFCMLWYSNLWVFGCGTKLTVL
- Kd (HuCD3E [5]): > 100 nM

B11: ABP100s.10.6 (antibody, V domains shown)
VH: EVQLVESGGGLVQPGGSLKLSCAASGFTFNTYAMNWVRQAPGKCLEWVARIRSKYNNYATYYADSVKDRFTISRDDSKNTAYLQMNSLKTEDTAVYYCVRHGNFGNSYVSWFAYWGQGTLVTVSS
VL: QTVVTQEPSLTVSPGGTVTLTCRSSTGAVTTSNYANWVQQKPGQAFRGLIGGTNKRAPGVPARFSGSLLGGKAALTLSGVQPEDEAIYFCALWYSNLWVFGCGTKLTVL
- Kd (HuCD3E [2]): < 10 nM

B12: ABP100s.10.6.5 (antibody, V domains shown)
VH: EVQLVESGGGLVQPGGSLKLSCAASGFTFNTYAMNWVRQAPGKCLEWVARIRSKYNNYATYYADSVKDRFTISRDDSKNTAYLQMNSLKTEDTAVYYCVRHGNFGNSYVSWFMYWGQGTLVTVSS
VL: QTVVTQEPSLTVSPGGTVTLTCRSSTGAVTTSNYANWVQQKPGQAFRGLIGGTNKRAPGVPARFSGSLLGGKAALTLSGVQPEDEAIYFCALWYSNLWVFGCGTKLTVL
- Kd (HuCD3E [5]): ≥ 100 nM

B13: ABP100s.10.6.6 (antibody, V domains shown)
VH: EVQLVESGGGLVQPGGSLKLSCAASGFTFNTYAMNWVRQAPGKCLEWVARIRSKYNNYATYYADSVKDRFTISRDDSKNTAYLQMNSLKTEDTAVYYCVRHGNFGNSYVSWFAYWGQGTLVTVSS
VL: QTVVTQEPSLTVSPGGTVTLTCRSSTGAVTTSNYANWVQQKPGQAFRGLIGGTNKRAPGVPARFSGSLLGGKAALTLSGVQPEDEAIYFCMLWYSNLWVFGCGTKLTVL
- Kd (HuCD3E [1]): ≥ 100 nM

B14: VH3 (SEQ ID NO: 18) + VL4 (SEQ ID NO: 20) (antibody, V domains shown)
VH: EVQLVESGGGLVQPGGSLKLSCAASGFTFNTYAMNWVRQAPGKGLEWVARIRSKYNNYATYYADSVKDRFTISRDDSKNTAYLQMNSLKTEDTAVYYCVRHGNFGNSYVSWFAYWGQGTLVTVSS
VL: QTVVTQEPSLTVSPGGTVTLTCRSSTGAVTTSNYANWVQQKPGQAFRGLIGGTNKRAPGVPARFSGSLLGGKAALTLSGVQPEDEAEYFCALWYSNLWVFGGGTKLEIK
notes: Humanized SP34 anti-CD3 variant; The sample heated at 42° C. is the same molecule and is marked under assay; also called VH3 + VL4
- Kd (HuCD3E [6]): 1.72 nM
- koff (HuCD3E [6]): 0.000331 s⁻¹
- kon (HuCD3E [6]): 192000 M⁻¹ s⁻¹
- Kd (CynoCD3E [7]): 2.14 nM
- koff (CynoCD3E [7]): 0.000501 s⁻¹
- kon (CynoCD3E [7]): 234000 M⁻¹ s⁻¹
- Kd (HuCD3E [8]): 1.5 nM
- koff (HuCD3E [8]): 0.000349 s⁻¹
- kon (HuCD3E [8]): 232000 M⁻¹ s⁻¹
- Kd (CynoCD3E [9]): 1.9 nM
- koff (CynoCD3E [9]): 0.00049 s⁻¹
- kon (CynoCD3E [9]): 257000 M⁻¹ s⁻¹

B15: VH3 (SEQ ID NO: 18) + VL6 (SEQ ID NO: 19) (antibody, V domains shown)
VH: EVQLVESGGGLVQPGGSLKLSCAASGFTFNTYAMNWVRQAPGKGLEWVARIRSKYNNYATYYADSVKDRFTISRDDSKNTAYLQMNSLKTEDTAVYYCVRHGNFGNSYVSWFAYWGQGTLVTVSS
VL: QTVVTQEPSLTVSPGGTVTLTCRSSTGAVTTSNYANWVQQKPGQAFRGLIGGTNKRAPGVPARFSGSLLGGKAALTLSGVQPEDEAIYFCALWYSNLWVFGGGTKLEIK
notes: Humanized SP34 anti-CD3 variant; The sample heated at 42° C. is the same molecule and is marked under assay; also called VH3 + VL6
- Kd (HuCD3E [6]): 1.25 nM
- koff (HuCD3E [6]): 0.000286 s⁻¹
- kon (HuCD3E [6]): 229000 M⁻¹ s⁻¹
- Kd (CynoCD3E [7]): 1.71 nM
- koff (CynoCD3E [7]): 0.000469 s⁻¹
- kon (CynoCD3E [7]): 274000 M⁻¹ s⁻¹
- Kd (HuCD3E [8]): 1.38 nM
- koff (HuCD3E [8]): 0.000343 s⁻¹
- kon (HuCD3E [8]): 249000 M⁻¹ s⁻¹
- Kd (CynoCD3E [9]): 1.36 nM
- koff (CynoCD3E [9]): 0.000489 s⁻¹
- kon (CynoCD3E [9]): 359000 M⁻¹ s⁻¹

From US20250340637A1 (ABPRO, published 2025)
